# Data reported in article PMC5339894, “G196 epitope tag system: a novel monoclonal antibody, G196, recognizes the small, soluble peptide DLVPR with high affinity” (Scientific Reports, 2017).
# B1: mAb G196: mouse mAb (IgG1) raised against GST protein bacterially expressed using the pGEX-2T vector (antibody, V domains shown)
# VH: QVKLQESGAELVKPGASVKLSCKASGYTFTNYWMHWVKLRPGQGFEWIGEINPSNGGSNYNEKFKRKATLTVDKSSSTAYMQLSSLTSEDSAVFYCSIWDSYFDYWGQGTTLTVSS
# VL: NIVMTQSPKSMSMSVGERVTLTCKASENVVTYVSWYQQKPEQSPKLLIYGASNRYTGVPDRFTGSGSATDFTLTISSVQAEDLADYHCGQGYSYPYTFGGGTKLEIK
# Tests used:
# [1] = system: N- and C-terminally G196-tagged protein; test: detection of N- and C-terminally G196-tagged protein; conditions: this study and refs. 22 and 23
# FHG-G196-NAC1 = test: immunofluorescence of GFP- and G196-tagged nuclear protein in HeLa cells; type: cell-based, human; conditions: FHG-G196-NAC1, Alexa-594 / Alexa-488 secondary
# Experimental: Figure 5 Application of the G196 epitope tag system for scientific research. (a) Western blot and immunoprecipitation (IP) analysis of FLAG-HA-Emerald GFP (FHG) tagged with C-terminal G196-tag in HeLa cells using mAb G196. HeLa cells were transfected with FHG/pcDNA3 or FHG-G196/pcDNA3. After incubation for two days, the cells were lysed and subjected to Western blotting with anti-FLAG (M2) or G196 mAbs (left panel). These lysates were immunoprecipitated with anti-FLAG (M2) (lanes 7, 8) or G196 (lanes 9, 10) mAbs and subjected to Western blotting with anti-FLAG polyclonal antibody (right panel). (b) Immunofluorescence of GFP- and G196-tagged nuclear protein in HeLa cells using mAb G196. HeLa cells were transfected with FHG-G196-NAC1/pcDNA3. After incubation for two days, the cells were fixed and incubated with mAb G196 and anti-GFP polyclonal Ab, then stained with Alexa-594 anti-mouse and Alexa-488 anti-rabbit secondary antibodies. (c) Western blot and chromatin immunoprecipitation (ChIP) analysis of Atf1-G196-GFP in fission yeast using mAb G196. A DNA fragment containing the transcription factor atf1 gene fused with the G196 epitope-GFP gene was replaced with the genomic atf1 gene. Protein extracts were separated by SDS-PAGE and detected with mAb G196 and anti-GFP polyclonal antibody (left panel). […] Asterisk indicates non-specific band also detected using the second Ab alone. […]
# Atf1-G196-GFP = test: Western blot analysis of fission yeast extracts; type: cell-based; conditions: C-terminally 3 × G196-tagged Atf1, mAb G196 1:2000
# Text: C-terminal tagging of the atf1 gene (Supplementary Fig. 1) was accomplished using the G196t2 primer. This primer contains a sequence homologous to a portion of the atf1 coding sequence, a sequence for 3 × G196-tag, and a sequence homologous to another primer, com5. In the first PCR step, two sequences flanking the translational stop codon of the atf1 gene were amplified with the primers t1 and G196t2, and with the primers t3 and t4, using the genomic DNA as a template. The GFP-kanMX cassette was also amplified with the primers com5 and com6, using pFA6a-GFP(S65T)-kanMX as a template. The three PCR products were fused together in the second PCR step with the primers t1 and t4 to produce a DNA fragment for homologous recombination.
# Cells (1 × 10^8) growing exponentially in YES medium at 30 °C were harvested to obtain whole cell extracts as described elsewhere. Samples were resolved by SDS-PAGE on 7% gels, semi-dry blotted to PVDF membranes, and detected using an ECL detection system (PerkinElmer, Waltham, MA, USA). Mouse mAb G196 (1:2000) and anti-GFP rabbit polyclonal antibody (1:1000) were used as primary antibodies. HRP-conjugated goat anti-mouse antibody (1:5000, Rockland Immunochemicals) and anti-rabbit antibody (1:2000, Jackson ImmunoResearch Laboratories) were used as secondary antibodies.
# [2] = system: FLAG-HA-Emerald GFP tagged with C-terminal G196-tag (FHG-G196); test: immunoprecipitation (IP) from HeLa cell extracts; type: cell-based, human
# Text: Short peptides and paired mAbs specific for the sequences of interest are powerful and irreplaceable tools for scientific research. To ascertain the possible versatility of G196-tag as a versatile fusion tag, we generated several human and yeast expression constructs in which the G196-tag was fused to reporter proteins. First, we expressed FLAG- and HA-tagged Emerald GFP (hereafter abbreviated FHG) as a reporter protein, C-terminally fused with a G196-tag (6P12, SDLVPRGSP) in HeLa cells.
# Figure 5 Application of the G196 epitope tag system for scientific research. (a) Western blot and immunoprecipitation (IP) analysis of FLAG-HA-Emerald GFP (FHG) tagged with C-terminal G196-tag in HeLa cells using mAb G196. HeLa cells were transfected with FHG/pcDNA3 or FHG-G196/pcDNA3. After incubation for two days, the cells were lysed and subjected to Western blotting with anti-FLAG (M2) or G196 mAbs (left panel). These lysates were immunoprecipitated with anti-FLAG (M2) (lanes 7, 8) or G196 (lanes 9, 10) mAbs and subjected to Western blotting with anti-FLAG polyclonal antibody (right panel). (b) Immunofluorescence of GFP- and G196-tagged nuclear protein in HeLa cells using mAb G196. HeLa cells were transfected with FHG-G196-NAC1/pcDNA3. After incubation for two days, the cells were fixed and incubated with mAb G196 and anti-GFP polyclonal Ab, then stained with Alexa-594 anti-mouse and Alexa-488 anti-rabbit secondary antibodies. (c) Western blot and chromatin immunoprecipitation (ChIP) analysis of Atf1-G196-GFP in fission yeast using mAb G196. A DNA fragment containing the transcription factor atf1 gene fused with the G196 epitope-GFP gene was replaced with the genomic atf1 gene. Protein extracts were separated by SDS-PAGE and detected with mAb G196 and anti-GFP polyclonal antibody (left panel). GFP-Iws1 expressing cells were used as a negative control. Asterisk indicates non-specific band also detected using the second Ab alone. Schematic representation of the tdh1 locus (right upper panel). The promoter of the tdh1 gene harbors a CRE consensus site. […]
molecule,measurement,setting,value
B1,detection of N- and C-terminally tagged protein,[1],detected both N- and C-terminally G196-tagged protein
same,immunofluorescence detection of nuclear reporter protein NAC1,FHG-G196-NAC1,successfully detected the nuclear reporter protein
same,detection of Atf1 by Western blot,Atf1-G196-GFP,detected the Atf1 protein
same,immunoprecipitation of reporter lacking G196-tag,"[2]; HeLa cell extracts, FHG (lane 9)",did not immunoprecipitate reporter protein lacking the G196-tag
same,immunoprecipitation of FHG-G196,"[2]; HeLa cell extracts, Western blot with anti-FLAG polyclonal antibody (lane 10)",efficiently immunoprecipited reporter protein
same,immunoprecipitation of FHG-G196 compared with anti-FLAG,[2]; lane 10 versus lane 8,comparable to that of FLAG immunoprecipitates
